Experimental data reported in patent US20250027071A1.
Where two headings read alike, the source gives them in different places.

Legend:
Aβ (1-40) peptide [1] = tested on: Aβ (1-40) peptide
[2] = tested on: TGFBIp G623R peptide (23-amino acid peptide from the 4th FAS1 domain of TGFBIp with the substitution G623R)
[3] = target: TGFBIp G623R peptide (23-amino acid peptide from the 4th FAS1 domain of TGFBIp with the substitution G623R); assay: cell-based or functional assay
Aβ (1-40) peptide [4] = assay: cell-based or functional assay
[5] = target: TGFBIp G623R peptide (23-amino acid peptide from the 4th FAS1 domain of TGFBIp with the substitution G623R); assay: cell-based or functional assay; remark: listed apart in the source

| Molecule | ThT disaggregation assay of mature Aβ (1-40) fibrils, 24 h (Aβ (1-40) peptide [1]) | ThT fluorescence relative to untreated G623R fibrils after 48 h (disaggregation assay, 10 µM L-PGDS : 50 µM fibrils) [2] | ThT fluorescence intensity relative to the G623R control after 48 h (fibrillation inhibition assay, 10 µM L-PGDS : 50 µM monomeric peptide) [3] | other results |
| --- | --- | --- | --- | --- |
| C65A L-PGDS (C65A single mutant of truncated L-PGDS) | significant (p<0.05) retention of disaggregation activity across all L-PGDS mutants after 24 h of incubation | 70.56%±8.18% (SD) | – | – |
| C65A L-PGDS (C65A single mutant of truncated L-PGDS) (enzyme) | – | – | 102% | – |
| RA L-PGDS (K58R+C65A double mutant of truncated L-PGDS) | significant (p<0.05) retention of disaggregation activity across all L-PGDS mutants after 24 h of incubation | 72.78%±20.42% (SD) | – | ThT assay of Tau VK26 aggregation (100 µM peptide with 5 µM or 10 µM RA L-PGDS) (Tau peptide VK26): RA L-PGDS almost completely inhibited the aggregation of the Tau protein; fibril length from TEM micrographs after disaggregation treatment [2]: RA-L-PGDS treatment did indeed produce shorter fibrils as opposed to WT L-PGDS |
| RA L-PGDS (K58R+C65A double mutant of truncated L-PGDS) (enzyme) | – | – | 51.4% | ThT fluorescence relative to Aβ (1-40) control (inhibitory assay, 24 h) (Aβ (1-40) peptide [4]): 96.1% |
| truncated human wild-type Lipocalin-type prostaglandin D synthase (L-PGDS) (enzyme, UniProt P41222 23-190, looked up, C-terminal His6 tag) Prostaglandin-H2 D-isomerase: APEAQVSVQPNFQQDKFLGRWFSAGLASNSSWLREKKAALSMCKSVVAPATDGGLNLTSTFLRKNQCETRTMLLQPAGSLGSYSYRSPHWGSTYSVSVVETDYDQYALLYSQGSKGPGEDFRMATLYSRTQTPRAELKEKFTAFCKAQGFTEDTIVFLPQTDKCMTEQ | significant (p<0.05) retention of disaggregation activity across all L-PGDS mutants after 24 h of incubation | 68.78%±18.20% (SD) | – | ThT fluorescence intensity relative to the G623R control after 48 h (fibrillation inhibition assay, 10 µM L-PGDS : 50 µM monomeric peptide) [5]: 52.5% |
